In US20260103490A1:
Where no end group is shown, it is not given here. [ ]: non-standard residue; d: D form.

How the values were obtained:
[1] = molecular target: NbALFA^ST (NbALFA clone 1G5); assay: off-rate assay: peptide elution from NbALFA^ST resin; tag position N
[2] = molecular target: NbALFA^ST (NbALFA clone 1G5); assay: off-rate assay: peptide elution from NbALFA^ST resin; tag position C

NbALFA^ST (NbALFA clone 1G5), sequence (VHH, as listed by the source): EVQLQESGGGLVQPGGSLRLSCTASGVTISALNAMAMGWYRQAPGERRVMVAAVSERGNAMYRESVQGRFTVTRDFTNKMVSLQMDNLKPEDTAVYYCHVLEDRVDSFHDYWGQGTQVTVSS

Row | Binder | t1/2 [1] | t1/2 [2]
1 | MSGLEQELRRRLTP[code s] (not fully specified; printed as MSGLEQELRRRLTPs) […s (SEQ ID NO: 110)] | < 2 min | 
2 | GPSGLEQELRRRL [gp…. (SEQ ID NO: 108)] |  | < 2 min
